Measurements as given in article PMC7468311 (Acta Pharmacologica Sinica, 2020).
Entries after “also recorded” stand apart in the source; their conditions may differ.

Assays:
rat plasma [1] = assay: Plasma clotting measurement in vitro, TT; type: biochemical, Sprague Dawley (SD) rats; conditions: at the same concentration
rat plasma [2] = assay: Plasma clotting measurement in vitro, aPTT; type: biochemical, Sprague Dawley (SD) rats; conditions: at the same concentration
rat plasma [3] = assay: Plasma clotting measurement in vitro, PT; type: biochemical, Sprague Dawley (SD) rats; conditions: at the same concentration
thrombin = thrombin (Homo sapiens, UniProt P00734); assay: Bio-layer interferometry; type: binding
DTIP D24A mutant = assay: BLI
DTIP E35A mutant = assay: BLI
DTIP Y3A mutant = assay: BLI
[4] = target: direct thrombin inhibitor peptide (DTIP); assay: BLI
DTIP C6A-C14A mutant = assay: BLI

In the case of bivalirudin, the “TT of DTIP compared with bivalirudin” value (rat plasma [1]) is reported as “on the same order of magnitude”, the “aPTT of DTIP compared with bivalirudin” value (rat plasma [2]) is reported as “on the same order of magnitude” and the “PT of DTIP compared with bivalirudin” value (rat plasma [3]) is reported as “on the same order of magnitude”.
In the case of enoxaparin sodium, the “Binding of thrombin in BLI (in words)” value (thrombin) is reported as “no direct interaction; also recorded: No binding”.
thrombin (enzyme) showed a Kd (DTIP D24A mutant) of 194 nM, a Kd (DTIP E35A mutant) of 188 nM and a Kd (DTIP Y3A mutant) of 162 nM. For the same substance, the Kd [4] was 164 nM and the Kd (DTIP C6A-C14A mutant) was 138 nM.
